Source: paper PMC12371199, “Identification of c‐Met on Tumor Cells as a Novel Receptor for B7‐H3 Entails Implications for Cancer Cell Stemness and Targeted Therapy” (MedComm, 2025)

Tests used:
[1] = target: T1, purified recombinant extracellular domain of c‐Met (from Met1 to Thr932), c‐Met‐his (human, UniProt P08581 25-932); assay: SPR
T1 chain: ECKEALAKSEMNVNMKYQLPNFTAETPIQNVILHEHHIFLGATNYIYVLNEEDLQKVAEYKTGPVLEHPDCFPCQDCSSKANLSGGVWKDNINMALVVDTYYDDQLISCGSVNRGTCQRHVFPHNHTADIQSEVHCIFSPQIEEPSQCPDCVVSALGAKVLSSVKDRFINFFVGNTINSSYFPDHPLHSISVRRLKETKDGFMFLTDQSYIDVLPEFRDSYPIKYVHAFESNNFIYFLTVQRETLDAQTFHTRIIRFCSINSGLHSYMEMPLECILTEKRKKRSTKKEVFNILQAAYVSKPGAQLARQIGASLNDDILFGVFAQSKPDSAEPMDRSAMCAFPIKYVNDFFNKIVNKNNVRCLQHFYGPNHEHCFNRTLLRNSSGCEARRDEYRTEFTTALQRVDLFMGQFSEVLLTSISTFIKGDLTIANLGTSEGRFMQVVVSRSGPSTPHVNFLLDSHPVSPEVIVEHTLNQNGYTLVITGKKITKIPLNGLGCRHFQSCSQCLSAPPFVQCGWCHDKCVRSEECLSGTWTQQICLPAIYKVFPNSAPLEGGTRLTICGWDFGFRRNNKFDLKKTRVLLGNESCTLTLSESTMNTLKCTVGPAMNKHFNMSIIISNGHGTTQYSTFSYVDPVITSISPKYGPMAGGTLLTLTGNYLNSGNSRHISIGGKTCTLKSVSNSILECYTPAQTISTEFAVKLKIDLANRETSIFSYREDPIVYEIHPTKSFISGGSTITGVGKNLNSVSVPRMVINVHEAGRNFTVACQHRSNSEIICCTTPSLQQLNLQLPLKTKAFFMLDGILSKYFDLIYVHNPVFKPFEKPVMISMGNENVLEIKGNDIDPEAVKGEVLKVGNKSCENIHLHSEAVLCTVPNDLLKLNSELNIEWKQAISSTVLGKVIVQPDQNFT

[2] = target: T2, purified recombinant extracellular domain of c‐Met (from Met1 to Thr932), c‐Met‐his (human, UniProt P08581 25-932); assay: SPR; Biacore T200; c‐Met‐his immobilised on CM5 chip (10 mM sodium acetate pH 4.5); B7‐H3‐his as analyte in serial doubling concentrations up to 100 µM; 30 µL/min, 25°C; 1:1 model, global fit; settings: both partners purified
T2 construct: signal peptide in the construct; c-Met (hepatocyte growth factor receptor), extracellular domain, Met1 to Thr932; The limits and supplier are told for the SPR; source: bought: Sino Biological (Beijing, China)

koff [1]: 0.000707 s⁻¹ | Kd [2]: 1660 nM
B1: purified recombinant extracellular domain of B7‐H3 (from Gly27 to Thr461), B7‐H3‐his (domain or fragment, human, UniProt Q5ZPR3 27-461, looked up)
chain: GALEVQVPEDPVVALVGTDATLCCSFSPEPGFSLAQLNLIWQLTDTKQLVHSFAEGQDQGSAYANRTALFPDLLAQGNASLRLQRVRVADEGSFTCFVSIRDFGSAAVSLQVAAPYSKPSMTLEPNKDLRPGDTVTITCSSYQGYPEAEVFWQDGQGVPLTGNVTTSQMANEQGLFDVHSILRVVLGANGTYSCLVRNPVLQQDAHSSVTITPQRSPTGAVEVQVPEDPVVALVGTDATLRCSFSPEPGFSLAQLNLIWQLTDTKQLVHSFTEGRDQGSAYANRTALFPDLLAQGNASLRLQRVRVADEGSFTCFVSIRDFGSAAVSLQVAAPYSKPSMTLEPNKDLRPGDTVTITCSSYRGYPEAEVFWQDGQGVPLTGNVTTSQMANEQGLFDVHSVLRVVLGANGTYSCLVRNPVLQQDAHGSVTITGQPMT
notes: B7-H3 (CD276), human, extracellular domain, Gly27 to Thr461; The limits and supplier are told for the SPR; also called soluble recombinant B7‐H3; source: bought: BioIntron (Taizhou, China)
